{"source": "the nanobody polyreactivity screen of Harvey et al. (2022)", "data": [{"experiment": "yeast display, Sf9 membrane polyspecificity reagent, FACS + sequencing; frameworks hold sequencing errors", "outline": "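Nanobodies from a synthetic yeast display library (Saccharomyces cerevisiae BJ5465), induced 36–48 hours with galactose, were stained 1 hour at 4 °C with 10% biotinylated, detergent-solubilized Sf9 membrane reagent, enriched on streptavidin microbeads, then FACS-sorted. Anti-HA (expression) and streptavidin (reagent binding) fluorescence set low and high (top ~1%) gates. Polyreactivity labels come from the gate of origin. Genes were colony-PCR amplified, MiSeq 2 × 250 sequenced and filtered by CDR length.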", "values": [{"sequence": "QVQMQESGGGLVQAGGTLRLSCAASGSFSADEDMGWYRQAQGKEREFVAGISVGGNTNYADSVKGRFTISRENAKNTVYLQINSLKPEDTAVYYCAVLQDVYDALDYWAQGTQVTVSS", "polyreactivity (PSR sort gate)": "high polyreactivity"}, {"sequence": "QVQLVESGGGLVQAGGSLRLSCAASGRTFRWYAMGRYRQAPGKERELVAVISRGGGSTTYADSVKGRFTISRDNAKNTVYLQMNSLKPEDTAVYYCAAQWSGSVGSRPMYYWGQGSQVTVSS", "polyreactivity (PSR sort gate)": "high polyreactivity"}, {"sequence": "QVQLLDSGGGLVQAGGSLRLSCAASGSIFGRNAMVWYRQAPGKEREFVATITSRGGRTYYADSVKGRFTISRDNAKNTVYLQMNSLKPEDTAVYYCAADTYISTLKKYRLGDYWGQGTQVTVSS", "polyreactivity (PSR sort gate)": "low polyreactivity"}, {"sequence": "QVQLVESGGGLVQAGGSLRLSCAASGSIFNIYAMGWYRQAPGKERELVATITGIADSTYYADSVKGRFTISRDNAKNTVYLQMNSLKPEDTAVYFCAAEKYVAEYEYWGQGTQVTVSS", "polyreactivity (PSR sort gate)": "low polyreactivity"}, {"sequence": "QVQRLESRGGLVQAGGSLRLSCAASGSTFDYNAMGWYRQAPGKERELVAAITSSGGSTYYADSVKGRFTISRDNAKNNVYLQMHSLKPEDTAVYYCNADGYVPDYEYWGQGTQVTVSS", "polyreactivity (PSR sort gate)": "high polyreactivity"}, {"sequence": "QVQLVESGGGLVQAGGSLRLSCAASGSIFYSNAMGWYRQAPGKERELVAAITWSGGSTYYADSVKGRFTISRDNAKNTVYLQMNSLKPEDTAVYYCNARRNVRQTFGYEYWGQGTQVTVSS", "polyreactivity (PSR sort gate)": "high polyreactivity"}, {"sequence": "QVQLVESGGGLVQAGGSLRLSCAASGFTCKYYTMGWYRQAPGKERELVAAISKSGDITYYADSVKGRFTISRDNAKNTVYLQMNSMKPEDTAVYYCAVVPSSTYHAYDYWGQGTQVTVSS", "polyreactivity (PSR sort gate)": "high polyreactivity"}, {"sequence": "QVQHVESGGGLVQAGGSLRLSCAASGRIYRKAMGWYRQAPGKERELVAVITRGGSTNYADSVKGRFTISRDNAKNSVYLQMNSLKPEDTAVYYCAATYSYRFSSFDYWGQGTQVTVSS", "polyreactivity (PSR sort gate)": "high polyreactivity"}, {"sequence": "QVQLVDSGGGLVQAGGSLRLSCAASGSIFSFYAMGGSRQAPGKERELVAAIDGGGSTDYADSVKGRFTISRDHAKYTVYLQMNSLKPEDTAVYDCAARDIYHYDWGQGTQVTVSS", "polyreactivity (PSR sort gate)": "low polyreactivity"}, {"sequence": "QVQLVESGGGLVQAGGSLRLSCAASGRIFQQNAMGWYRQAPGKERELVAAISSRGGSTYYADSVKGRFTISRDNAKNTVYLQMNSLKPEDTAVYYCARQYQSYRYRGYDYWGQGTQVTVSS", "polyreactivity (PSR sort gate)": "low polyreactivity"}, {"sequence": "QVQLVESGGGLVQAGGSLRLSCAASGSIFRIYAMGWYRQAPGKERELVAAISTSGVRTYYADSVKGRFTISRDNAKNTVYLQMNSLKPEDTAVYYCNARYVRPRGTGDFDYWGQGTQVTVSS", "polyreactivity (PSR sort gate)": "high polyreactivity"}, {"sequence": "QVQLVESGGGLVQAGGRLRLSCAASGFTFSYNTMGWYRQEPGKERELVAAITGDVSTNYADSVKGRFTISRDNAKNTVYLQMNSVKPEDTAVYYCAARPNFPGYEDLSVDYDYWGQGTQVTVSS", "polyreactivity (PSR sort gate)": "low polyreactivity"}, {"sequence": "QVQQQESGGGMEQARGSLRLSCAASGYISWADYMGCYRQAPGKERELVAVIGYGSTTYYADSVKGRFTMSRDNAKNTAYLQMNSLKPEDTAVYYCAVGWYRDTAYKYWGQGTQVTVSS", "polyreactivity (PSR sort gate)": "low polyreactivity"}, {"sequence": "QVQLEESAGGLVQAGGSLRLSCAASGRIFVRNAMGWYRQAPGKERELVADITNGGSTNYADSVKGRFTISRDNAKNTVYLQMNSLKPEDTAVYYCAATYPYSWVYSGYYYWGHGTQVTVSS", "polyreactivity (PSR sort gate)": "low polyreactivity"}, {"sequence": "QVQLVESGGGLVQAGGSLRLSCAASGRTLRYYAMGWYRQAPGTERELVASISIGGSTYYADSVKGRFTISRDNAKNTVYLQMHSQKPEATAVYYCATDYSTSGYGYWGQGTQVTVST", "polyreactivity (PSR sort gate)": "low polyreactivity"}, {"sequence": "QVQLVESGGGLVQAGGSIRLSCAASGVIFYGNSIGWYRQAPGKERELVAAISRRGGRTYYADSVKGRFTNSRDNAKITVYLQMNSLKPEDTAVYYCAADVIYSGDYWGQGTQVTVSS", "polyreactivity (PSR sort gate)": "high polyreactivity"}, {"sequence": "QVQLVESGGGLVQAGGSLRLSCAASGSIFAKYAMGWYRQAPGKERELVAAITGSGGSTYYADSVKGRFTISRDNAKNTVYLQMNSVKPEDTAVYYCAKRRPRYTYNYWGQGTQVTVSS", "polyreactivity (PSR sort gate)": "high polyreactivity"}, {"sequence": "QVQLVESGGGLVQAGGSLRLSCAASGSTFDSYAMGWYRQAPGKERELVAALSYNGSSTDYADSVKGRFTISRDNAKNTVDEQMNSLKPEDTAVYYCAAAPGFSAGHHDYWGQGTQVTVSS", "polyreactivity (PSR sort gate)": "low polyreactivity"}, {"sequence": "QVQLVESGGGLVQAGGSLRLSCAASGSTFAGNGMGWYRQAPGKERELVAGIDVTGGSSYYADSVKGRFTISRDNAKNTVYLQMNSLKPEDTAVYYCNTVWYRGGIDYYWGQGTQVTVSS", "polyreactivity (PSR sort gate)": "low polyreactivity"}, {"sequence": "QVQLVESGGGLVQAGGSLRLSCAASGFTFNRYAMGWYRQAPGKERELVAAISARGGITYYADSVKGRFTISRDNAKNTVYLQMNSLKPEDTAVYYCNKRYSSWSGEHDYWGQGTQVTVSS", "polyreactivity (PSR sort gate)": "high polyreactivity"}, {"sequence": "QVQLVESGGGLVQAGGSLRLSCAASGLTFDNYAMGWYRQAPGKERELVAAISTSSGRTYYADSVKGRFTISRDNAKNTVYLQMNSLKPEDTAVYYCAAEVAFIYSYYEVYKYEYWGQGTQVTVSS", "polyreactivity (PSR sort gate)": "high polyreactivity"}, {"sequence": "QVQLVESGGGLVQAGGSLRLSCAASARIFIVNAMGWYRQAPGKDREFVAANTSRGGITYYADSVKGRFTISRDNAKNTVYLQMNSLKPEDTAVYYCAAGYITCGSGNWVVTPYDYWGQGTQVTVSS", "polyreactivity (PSR sort gate)": "high polyreactivity"}, {"sequence": "QVQLVESGGGLVQAGGSLRLSCAASGIIFTYYAMGWYRQAPGKERELVAAISVSGSSTYYADSVKGRFTISRDNAKNTVYLQMNSLKPEDTAVYYCAARYQWGTRGFGYWGQGTQVTVSS", "polyreactivity (PSR sort gate)": "high polyreactivity"}, {"sequence": "QVQLVESGGGLVQAGGSLSLNCAASGFTFLQYPMGWYRQAPGKERELVATISSGGSTYYADSVKGRFTISPDNAKNTVYLQMNSLKPEDTAVYYCADTGYSSCTYYTHEYWGQGTQVTVSS", "polyreactivity (PSR sort gate)": "low polyreactivity"}, {"sequence": "QVQLVESGGGLVQAGGSLRLSCAASGSIFDYYAMGWYRQAPGKERELVAAINISGGDTYYADSVKGRFTISRDNAKNTVYLQMNSLKPEDTAVYYCAADWVTWWFSRVGWDYGYWGQGTQVTVSS", "polyreactivity (PSR sort gate)": "low polyreactivity"}, {"sequence": "QVQLVESGGGLVQAGGSLRLSCASSGSTFPVYAMGWYRQPPGKDRELVAAITSGGSTYYADSVKGRFTISRDNEKNTVSLQMNIRKPEDTAVYYCNADGYLSYAFDYWGQGTQVTVSS", "polyreactivity (PSR sort gate)": "low polyreactivity"}, {"sequence": "QVQLQESGGGLVQVGGSLRLSCAASGTIFIYGFLGWNRQAPGKERDLVASINLGGITNYADSVKGRFTISRDNAKITVYLQMNSLKPEDTAVYYCAADGGESAWGGYDYWGQGTQGTVSS", "polyreactivity (PSR sort gate)": "low polyreactivity"}, {"sequence": "QVQLVESGGGLVQAGGSLRLSCAASGSTFRKYAMGWYRQAPGKERELVAAISRGGDSTYYADSVKGRFTISRENAKNTVYLQMNSLKPEDTAVYYCAADTRPGYSGFEYRGQGTQVTVSS", "polyreactivity (PSR sort gate)": "high polyreactivity"}, {"sequence": "QVQLVESGGGLVQAGGSLRLSCAASGSIFGVNAMGWYRQAPGKERELVASITGGDSTNYADSVKGRFTISRDNAKNTVYLQMNSLKPEDTAGYYCAKDHYYRYEEGDYWGQGTQVTVSS", "polyreactivity (PSR sort gate)": "low polyreactivity"}, {"sequence": "QVQLVESGGGLVQAGGSLRLSCAASGNIFFRYTMGWYRQAPGKERELVAASSASGGSTYYADSVKGRFTISRDNAKNTVYLQMNSLKPEDTAVYYCAARILHYTSEYYYWGQGTQVTVSA", "polyreactivity (PSR sort gate)": "high polyreactivity"}, {"sequence": "QVQLVESGGGLVQAGGSLRLSCAASGSTFFLKAMGWYRQSPGKERELVAAISYSDSGTNYADSVKGRFTISRDNAKNTVYLQMNSLKPEDTAVYYCATAVRPWYVTSGNYWGQGTQVTVSS", "polyreactivity (PSR sort gate)": "low polyreactivity"}, {"sequence": "QVQLVESGGGLVQAGGSLRLSCAASGIIFEGNVMGWYRQAPGKERELVAAITSDTSTNYADSVKGRFTISRDNAKNSVYLQMNSLKPEDTAVYYCDALRRYPRPNIYGYWGQGTQVTVSS", "polyreactivity (PSR sort gate)": "low polyreactivity"}, {"sequence": "QVQLVESGGGLVQAGGSLRLSCAASGSTSRSAMGWYRQAPGKERELVASITRGGSTYYADSVKGRFTISRDNAKNTVYLQMNSLKPEDTAVYYCAARFPQHNYWAMDYWGQGTQVTVSS", "polyreactivity (PSR sort gate)": "high polyreactivity"}, {"sequence": "QVQLVESGGGLVQAGGSLRLSCAASGSTFVGYAMGWYRLAPGKEREFVAAITRGGSTNYADSVKGRFTISRDNAKNTVYLQMNSLKPEDTAVYYCAARDRREGFNFDYCGQGTQVTVSS", "polyreactivity (PSR sort gate)": "low polyreactivity"}, {"sequence": "QVQLVESGGGLVQAGGSLRLSCAASGFIFYYNAMGWYRQAPGKERELVAAISSSAGSTYYADSVKGRFTISRDNAKNTVYLQMNSLKPEDTAVYYCNADSSYRTIDSASDYDYWGQGTQVTVSS", "polyreactivity (PSR sort gate)": "low polyreactivity"}, {"sequence": "QVQLVESGVGLDQAGGSLRLSCAASGSIIWYYAMGWYRQAPGKERELVAAITVSGGSTYYADSVKGRFTISRDNAKNTVYLEMNTLKPEDTAVYYCAALYISLSGDEYDYWGQGTQVTVSS", "polyreactivity (PSR sort gate)": "low polyreactivity"}, {"sequence": "QVQLVESGGGLFQAGGSLRLSCAASGFIFGQNAMGWYRQAPGKERELVAAIDWTGGRTYYADSVKGRFTISRDNAKNTVYLQMNSLKPEDTAVYYCAADGVWYADSPYSIHYGYWGQGTQVTVSS", "polyreactivity (PSR sort gate)": "low polyreactivity"}, {"sequence": "QVHLVESGGGLVQAGGSLRLSCAASGRTFRKYAMGWYRQAPGKERELVAAISSSGGRTYYADSVKGRFTISRDNAKNTVYLQMNSLKPEDTAVYYCAAKQGNRNSYKYDYWGQGTQVTVSS", "polyreactivity (PSR sort gate)": "high polyreactivity"}, {"sequence": "QVQLVESGGGLVQAGGSLRLSCAASGSTFYTNAMGWYRQAPGKERELVAAISASVGSTYYADSVKGRFTISRDNAKNTVYLQMNSLKPEDTAVYYCAADVWASRRYDYWGQGTQVTVSS", "polyreactivity (PSR sort gate)": "low polyreactivity"}, {"sequence": "QVQLVESGGGLVQAGGSLRLSCAASGGTFITNAMGWYRKAPGKERELVAAITSGGRTTYADSVKGRFTISRDNAKNTVDLQMNSLKPVDTAVYYCAADHVYSSTYFLDDYWGQGTQVTVSS", "polyreactivity (PSR sort gate)": "low polyreactivity"}, {"sequence": "QVQLVESGGGLVQAGGSLRLSCAASGNTFGENAMGWDRQAPRKETELVAAITYGGTTNYADSVKGRFTISRDNAKNTVYLQMNSLKPEDTAVYYCNAKFGISQPGHSGLLKMDYWGQGTQVTVSS", "polyreactivity (PSR sort gate)": "low polyreactivity"}, {"sequence": "QVQLVESGGGLVQAGGSLRLSCAASGRIFSLYAMGWYRQAPGKERELVATMDSNGGSTYYADSVKGRFTISRDNAKNTVYLQMNSLKPEDTAVYYCAAERYVRVWVAGILHYDYWGQGTQVTVSS", "polyreactivity (PSR sort gate)": "low polyreactivity"}, {"sequence": "QVQLVESGGGLVQAGGSLRLSCAASGSTYYYAMGWYREAPGKERELVAAISSSSGSTYYADSVKGRFTISRDNAKNTVYLQLNSLKPEDTAVYYCAAEGYKGWVYEYDYWGQGTQVTVSS", "polyreactivity (PSR sort gate)": "low polyreactivity"}]}]}
